# Where no end group is shown, it is not given here. The star is where a group is joined. Biotin = O=C1N[C@H]2[C@H](CS[C@H]2CCCCC(=O)*)N1
# T1: Peptide 2, non-conjugated (GSESTSSMED-C) (human)
# T1 construct: With the extra C-terminal Cys
# T1 peptide: GSESTSSMEDC
# T2: Peptide 1, non-conjugated (MADDYGSEST-C) (human)
# T2 construct: With the extra C-terminal Cys
# T2 peptide: MADDYGSESTC
# T3: Peptide 4, non-conjugated (SMEDYVNFNF-C) (human)
# T3 construct: With the extra C-terminal Cys
# T3 peptide: SMEDYVNFNFC
# T4: antigen peptide-BSA (immunisation peptide #1 MADDYGSESTSSMEDYVNFNF-C conjugated to BSA) (human, extra C-terminal Cys conjugated to BSA)
# T4 construct: also called Positive control antigen peptide-BSA; MADDY peptide
# T4 peptide: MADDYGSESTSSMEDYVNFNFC
# T5: Peptide 3-BSA (SSMEDYVNFN-C conjugated to BSA) (human)
# T5 peptide: SSMEDYVNFNC(BSA)
# T6: Peptide 3, non-conjugated (SSMEDYVNFN-C) (human)
# T6 construct: With the extra C-terminal Cys
# T6 peptide: SSMEDYVNFNC
# T7: Peptide 1-BSA (MADDYGSEST-C conjugated to BSA) (human)
# T7 peptide: MADDYGSESTC(BSA)
# T8: Peptide 4-BSA (SMEDYVNFNF-C conjugated to BSA) (human)
# T8 peptide: SMEDYVNFNFC(BSA)
# T9: Peptide 2-BSA (GSESTSSMED-C conjugated to BSA) (human)
# T9 peptide: GSESTSSMEDC(BSA)
# T10: biotin-peptide SMEDYVNFNF (human)
# T10 peptide: Biotin-SMEDYVNFNF
# T11: biotin-peptide MEDYVNFNFT (human)
# T11 peptide: Biotin-MEDYVNFNFT
# T12: biotin-peptide SSMEDYVNFN (human)
# T12 peptide: Biotin-SSMEDYVNFN
# T13: biotin-peptide TSSMEDYVNF (human)
# T13 peptide: Biotin-TSSMEDYVNF
# T14: Pep1-48, N-terminal domain 1 of CCR9, amino acids 1 to 48 (human)
# T14 construct: Chemically synthesized (Genscript), purity >75%; also called CCR9 N-terminal 1-48 peptide
# T14 peptide: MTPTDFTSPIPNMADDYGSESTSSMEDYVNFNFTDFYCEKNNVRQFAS
# B1: anti-CCR9 antibody clone 115 (murine, from hybridoma #115) (antibody, V domains shown)
# VH: QVQLKQSGPELVKPGTSVRVSCTASGYSFTDYIIYWVKQSHGRSLEWIGYIDPNNYNTRYSQKFKGKATLTVDKSSTSAFMHLNSLTSDDSAVYYCARDVYWGQGTTLTVSS
# VL: DVVMTQTPLSLTVSLGDQASISCRSSQSLVHSNGKTYLQWYLQKPGQSPKLLIYKVSNRFSGVPDRFSGSGSGTDFTLKISRVEAEDLGVYFCAQSTHVWTFGGGTKLEIKR
# notes: Mouse IgG1
# B2: CCR9_HUM2 scFv (humanized anti-CCR9 scFv, SEQ ID NO: 17 with C-terminal 6xHis tag) (scFv)
# scFv: QVQLVQSGAEVKKPGASVKVSCTASGYSFTDYIIYWVKQAHGQSLEWMGYIDPNNYNTRYSQKFQGKVTITVDKSSTSAYMELNSLTSDDTAVYYCARDVYWGQGTTVTVSSGGGGSGGGGSGGGGSGGGGSDVVMTQTPLSLSVTPGQPASISCRSSQSLVHSNGKTYLQWYLQKPGQSPKLLIYKVSNRFSGVPDRFSGSGSGTDFTLKISRVEAEDVGVYFCAQSTHVWTFGGGTKVEIKRAHHHHHH
# B3: Comparative antibody 1 (Comp-1) scFv, SEQ ID NO: 10 from WO2023/037125 A1, His-tagged (scFv)
# scFv: QVQLKESGPGLVQPSQTLSLTCTVSGFSVASYDMHWVRLPPGKGLEWMGIIWANGNTHYNSGLKSRLSISRDTSKSQVFLKMNSLQTEDTAIYFCTRGGFAYWGQGTLVTVSSGGGGSGGGGSGGGGSGGGGSDVVMTQTPVSLSVSLGGQVSISCRSSQSLVHNNGNTYLSWYLQKPGQSPQLLIYKVSNRFSGVSDRFSGSGSGTDFTLKISRVEPDDLGVYYCGQGTQYPTFGGGTKLELKHHHHHH
# Tests used:
# [1] = target: T1, Peptide 2, non-conjugated (GSESTSSMED-C); test: ELISA; Ab 0.03125 ug/mL; repII
# Experimental: (§1) In brief, plates with each non-conjugated peptide (50 μg/mL) or BSA-conjugated peptide (5 μg/mL) were coated in 0.58M carbonate-bicarbonate buffer pH9.5, 100 μL/well, at 4° C. […] After washing, wells were incubated with the 3, 3′,5,5′-Tetramethylbenzidine (TMB) HRP substrate and reactions were stopped with 2M HCl and OD450 was recorded.
# [2] = target: T2, Peptide 1, non-conjugated (MADDYGSEST-C); test: ELISA; Ab 0.03125 ug/mL; repII
# Experimental: as §1
# [3] = target: T3, Peptide 4, non-conjugated (SMEDYVNFNF-C); test: ELISA; Ab 0.03125 ug/mL; repII
# Experimental: as §1
# [4] = target: T4, antigen peptide-BSA (immunisation …); test: ELISA; Ab 0.03125 ug/mL; repII
# Experimental: as §1
# [5] = target: T5, Peptide 3-BSA (SSMEDYVNFN-C conjugated …); test: ELISA; Ab 0.03125 ug/mL; repII
# Experimental: as §1
# [6] = target: T6, Peptide 3, non-conjugated (SSMEDYVNFN-C); test: ELISA; Ab 0.03125 ug/mL; repII
# Experimental: as §1
# [7] = target: T7, Peptide 1-BSA (MADDYGSEST-C conjugated …); test: ELISA; Ab 0.03125 ug/mL; repII
# Experimental: as §1
# [8] = target: T15, BSA (negative control coating) (bovine, UniProt P02769 25-607); test: ELISA; Ab 0.03125 ug/mL; repII
# T15 construct: also called Negative control BSA
# Experimental: as §1
# [9] = target: T8, Peptide 4-BSA (SMEDYVNFNF-C conjugated …); test: ELISA; Ab 0.03125 ug/mL; repII
# Experimental: as §1
# [10] = target: T9, Peptide 2-BSA (GSESTSSMED-C conjugated …); test: ELISA; Ab 0.03125 ug/mL; repII
# Experimental: as §1
# [11] = target: T3, Peptide 4, non-conjugated (SMEDYVNFNF-C); test: ELISA; Ab 0.25 ug/mL; repII
# Experimental: as §1
# [12] = target: T15, BSA (negative control coating); test: ELISA; Ab 0.25 ug/mL; repII
# Experimental: as §1
# [13] = target: T10, biotin-peptide SMEDYVNFNF; test: ELISA biotin-peptide; scFv 0.3125 ug/mL; repI
# Experimental: (§2) The peptides were synthesized naked or with a N-terminal Biotin modification with a purity of >98%. All four scFvs were verified by ELISA that can be detected with anti-His antibodies. ELISA was performed for scFv-peptide binding validation. Briefly, naked peptides were coated (50 μg/mL) in 0.58M carbonate-bicarbonate buffer pH9.5, 100 μL/well, 4° C. O/N. Then after blocking (3% BSA-PBS, 300 μL/well 37° C. 1.5 h) and washing (PBS+Tween-20 0.05% v/v (0.05% PBST), wells were incubated with each purified scFv antibody at concentration of 1 μg/mL in PBS at 37° C. 1 h. After washing (0.05% PBST), wells were incubated with secondary antibodies (goat anti-His IgG-HRP) in PBS, 37° C., 30 min. After washing, and incubation with TMB substrate, reactions were stopped with 2M HCl and reading was quantified at OD450.
# (§3) ELISA with biotin-conjugated peptides (5 μg/mL) was performed very similar to described above with minor modifications.
# (§4) A full curve ELISA was performed for each positive scFv/biotin-peptide pair in order to confirm previous results. Tables 15-17 show ELISA results of the dose-dependent full curve for each positive peptide with scFv “CCR9_HUM”, “Comp-2” and “Comp-3”, respectively.
# [14] = target: T11, biotin-peptide MEDYVNFNFT; test: ELISA biotin-peptide; scFv 0.3125 ug/mL; repI
# Experimental: as §2, §3, §4
# [15] = target: T12, biotin-peptide SSMEDYVNFN; test: ELISA biotin-peptide; scFv 0.3125 ug/mL; repI
# Experimental: as §2, §3, §4
# [16] = target: T13, biotin-peptide TSSMEDYVNF; test: ELISA biotin-peptide; scFv 0.3125 ug/mL; repI
# Experimental: as §2, §3, §4
# [17] = target: T10, biotin-peptide SMEDYVNFNF; test: ELISA biotin-peptide; scFv 0.15625 ug/mL; repI
# Experimental: as §2, §3, §4
# [18] = target: T11, biotin-peptide MEDYVNFNFT; test: ELISA biotin-peptide; scFv 0.15625 ug/mL; repI
# Experimental: as §2, §3, §4
# [19] = target: T12, biotin-peptide SSMEDYVNFN; test: ELISA biotin-peptide; scFv 0.15625 ug/mL; repI
# Experimental: as §2, §3, §4
# [20] = target: T13, biotin-peptide TSSMEDYVNF; test: ELISA biotin-peptide; scFv 0.15625 ug/mL; repI
# Experimental: as §2, §3, §4
# [21] = target: T14, Pep1-48, N-terminal domain 1 of CCR9, …; test: BLI, His-tagged scFv on NTA biosensor, Pep1-48 as analyte, 1:1 global fit; paragraph 309 says that Comp-1 does not bind, in agreement with the BLI results of Table 11
# Experimental: The affinity between the CCR9-N-terminal domain 1 of CCR9 and the different scFvs was determined by Bio-Layer Interferometry (BLI), a technique that allows quantitative and qualitative measurement of biomolecular interactions in real-time. Briefly, scFv were immobilized onto NTA Biosensor (Sartorius) and quantification was performed in an Octet RED384 (Sartorius). scFv were dissolved in PBS (150 mM NaCl, 38 mM Na2HPO4, 12 mM NaH2PO4, pH 7.2) and a buffer containing 0.03% Tween-20 in PBS, pH 7.2 was used for baseline steps.
# T15 sequence (P02769 25-607 limits assumed): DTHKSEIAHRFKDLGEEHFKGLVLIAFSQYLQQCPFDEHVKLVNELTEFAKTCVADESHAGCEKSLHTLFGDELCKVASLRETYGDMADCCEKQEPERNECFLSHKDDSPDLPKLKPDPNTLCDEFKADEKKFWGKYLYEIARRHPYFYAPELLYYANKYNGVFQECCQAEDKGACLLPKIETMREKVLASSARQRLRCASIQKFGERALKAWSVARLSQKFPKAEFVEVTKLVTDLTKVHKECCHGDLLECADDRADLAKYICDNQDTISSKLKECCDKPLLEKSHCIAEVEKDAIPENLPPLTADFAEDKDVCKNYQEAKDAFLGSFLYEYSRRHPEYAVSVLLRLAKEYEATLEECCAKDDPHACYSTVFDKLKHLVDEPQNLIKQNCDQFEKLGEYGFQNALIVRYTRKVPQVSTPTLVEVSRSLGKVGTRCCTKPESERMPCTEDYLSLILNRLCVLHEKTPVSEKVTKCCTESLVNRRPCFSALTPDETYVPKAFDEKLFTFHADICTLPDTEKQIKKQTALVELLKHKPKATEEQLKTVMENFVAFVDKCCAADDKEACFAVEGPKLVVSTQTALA
binder,measurement,setting,value
B1,OD450,[1],0.01 OD
same,OD450,[2],0.01 OD
same,OD450,[3],0.76 OD
same,OD450,[4],1.48 OD
same,OD450,[5],1.57 OD
same,OD450,[6],1.62 OD
same,OD450,[7],0.01 OD
same,OD450,[8],0.01 OD
same,OD450,[9],1.53 OD
same,OD450,[10],0.01 OD
same,OD450,[11],2.24 OD
same,OD450,[12],0.02 OD
B2,OD450,[13],1.63 OD
same,OD450,[14],1.47 OD
same,OD450,[15],1.69 OD
same,OD450,[16],0.46 OD
same,OD450,[17],1.63 OD
same,OD450,[18],1.41 OD
same,OD450,[19],1.64 OD
same,OD450,[20],0.22 OD
B3,binding result,[21],no binding

# — US20260232732A1 (FUNDACI INSTITUT DE RECERCA CONTRA LA LEUC MIA JOSEP …, published 2026)
